The source of these data is article PMC8052502, “Enzyme kinetic and binding studies identify determinants of specificity for the immunomodulatory enzyme ScpA, a C5a inactivating bacterial protease” (Computational and Structural Biotechnology Journal, 2012).

The target of experiment [1] is recombinant ScpA, residues 31-1032 (active Streptococcal C5a peptidase) (Streptococcus pyogenes) (UniProt P15926).
Experiment [2] has as its target rhC5a_(R37A) (human). As to the kind of experiment: SPR; His-tagged C5a peptide immobilised on NTA sensor chip (30-40 RU), ScpA_(S512A) flowed over; 25 °C; 10 mM Hepes-KOH pH 7.5, 150 mM NaCl, 0.005% Tween 20, 50 μM EDTA; 1:1 Langmuir model with drifting baseline. For orientation: In SPR one partner is held on a chip, and binding of the other changes the refractive index at the surface.

Experiment [3] deals with rhC5a_(R46A) (human). The description is as above.
In experiment [4] the target is rhC5a_(K4A,K5A) (human). The description is as above.
The target in experiment [5] is rhC5a_(K49A) (human). The description is as above.
For experiment [6], the target named is rhC5a_(core), N-terminal cleavage product (PN) of rhC5a, residues 1-67 (human). Described as above.
For experiment [7], the target named is rhC5a_(K12A,K14A) (human). The experiment is described as above.
Experiment [8] has as its target rhC5a_(R40A) (human). The experiment is described as above.
Experiment [9] has as its target recombinant human C5a des Arg (rhC5adR), N-ter hexa-histidine tagged (human). The experiment is described as above.
Experiment [10] deals with T1, ScpA_(S512A), active site serine to alanine mutant of recombinant Streptococcal C5a peptidase ScpA, residues … (Streptococcus pyogenes, UniProt P15926 31-1032, S512A).
T1 construct: mimics the form released from the cell surface by SpeB; catalytic residues D130, H193, S512; also called S512A active site mutant of ScpA; source: recombinant, from plasmid pGEX ScpA_((31-1032)) mutated with QuickChange II; purified
T1 sequence: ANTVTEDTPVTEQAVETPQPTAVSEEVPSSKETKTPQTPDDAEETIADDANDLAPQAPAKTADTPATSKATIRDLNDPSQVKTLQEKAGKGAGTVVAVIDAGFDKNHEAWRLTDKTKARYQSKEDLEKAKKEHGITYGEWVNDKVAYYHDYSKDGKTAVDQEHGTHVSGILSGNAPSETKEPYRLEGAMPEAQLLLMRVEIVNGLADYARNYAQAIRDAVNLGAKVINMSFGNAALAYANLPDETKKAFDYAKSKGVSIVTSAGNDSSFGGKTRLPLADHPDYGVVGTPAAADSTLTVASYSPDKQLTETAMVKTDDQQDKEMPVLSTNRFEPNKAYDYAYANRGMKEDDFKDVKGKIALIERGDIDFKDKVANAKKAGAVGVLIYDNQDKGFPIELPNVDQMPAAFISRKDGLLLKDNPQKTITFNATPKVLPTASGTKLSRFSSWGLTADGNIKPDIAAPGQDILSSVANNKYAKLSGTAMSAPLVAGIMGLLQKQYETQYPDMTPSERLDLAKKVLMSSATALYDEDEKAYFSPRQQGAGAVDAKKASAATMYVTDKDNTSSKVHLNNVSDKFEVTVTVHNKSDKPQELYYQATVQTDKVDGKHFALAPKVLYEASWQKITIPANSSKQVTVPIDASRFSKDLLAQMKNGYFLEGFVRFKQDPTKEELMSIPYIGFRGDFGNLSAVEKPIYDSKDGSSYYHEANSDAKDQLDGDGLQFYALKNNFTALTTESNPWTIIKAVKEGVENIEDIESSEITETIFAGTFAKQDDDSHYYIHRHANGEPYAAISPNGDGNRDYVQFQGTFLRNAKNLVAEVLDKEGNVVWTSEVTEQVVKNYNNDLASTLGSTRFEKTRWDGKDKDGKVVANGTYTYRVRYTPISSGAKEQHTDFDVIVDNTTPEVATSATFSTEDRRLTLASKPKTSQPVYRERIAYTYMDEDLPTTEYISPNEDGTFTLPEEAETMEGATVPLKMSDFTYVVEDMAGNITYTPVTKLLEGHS
As to the kind of experiment: SPR; His-tagged rhC5a immobilised on NTA sensor chip, ScpA_(S512A) flowed over; 25 °C; Hepes buffer with 550 mM NaCl; 1:1 Langmuir model. The conditions noted are these: both partners purified.

The target in experiment [11] is T1, ScpA_(S512A), active site serine to …. Briefly: SPR; His-tagged rhC5a immobilised on NTA sensor chip, ScpA_(S512A) flowed over; 25 °C; Hepes buffer with 350 mM NaCl; 1:1 Langmuir model. The conditions noted are these: both partners purified.
Experiment [12] has the same target. As to the kind of experiment: SPR; His-tagged C5a peptide immobilised on NTA sensor chip (30-40 RU), ScpA_(S512A) flowed over; 25 °C; 10 mM Hepes-KOH pH 7.5, 150 mM NaCl, 0.005% Tween 20, 50 μM EDTA; 1:1 Langmuir model with drifting baseline. The conditions noted are these: both partners purified.
Experiment [13] shares this target. Briefly: SPR; His-tagged rhC5a immobilised on NTA sensor chip, ScpA_(S512A) flowed over; 25 °C; Hepes buffer with 950 mM NaCl; 1:1 Langmuir model. The conditions noted are these: both partners purified.
The target is the same in experiment [14]. Briefly: ITC; ScpA_(S512A) (18 μM) in the cell titrated with 170 μM rhC5a; 25 °C; 50 mM Hepes-KOH pH 7.5, 150 mM NaCl; one set of sites model; KD^ITC derived from KA. The conditions noted are these: both partners purified. For orientation: Isothermal titration calorimetry measures the heat released or taken up as one component is titrated into another.
The target is the same in experiment [15]. As to the kind of experiment: SPR; His-tagged rhC5a immobilised on NTA sensor chip, ScpA_(S512A) flowed over; 25 °C; Hepes buffer with 750 mM NaCl; 1:1 Langmuir model. The conditions noted are these: both partners purified.
Experiment [16] has the same target. As to the kind of experiment: SPR; competition in solution: 40 RU HT-rhC5a_(core) immobilised on NTA chip; ScpA_(S512A) (700 nM) pre-incubated with rhC5a-HT (0-2000 nM) 1 hr on ice in SPR running buffer, then injected; Req fitted by the method of Morelock et al. to give KD^Sol. The conditions noted are these: both partners purified.

On to “doubly BODIPY labelled His-tagged rhC5aC75 (rhC5aC75-BODIPY) (natural protein)”, for which the Km of cleavage of rhC5aC75-BODIPY (16-500 nM) by 180 pM ScpA, fluorescence progress curves, 25 °C, PBS with 0.1% Tween 20 in experiment [1] is 185 nM.

B1: ScpA_(S512A), active site serine to alanine mutant of recombinant Streptococcal C5a peptidase ScpA, residues 31-1032 (enzyme)
chain: ANTVTEDTPVTEQAVETPQPTAVSEEVPSSKETKTPQTPDDAEETIADDANDLAPQAPAKTADTPATSKATIRDLNDPSQVKTLQEKAGKGAGTVVAVIDAGFDKNHEAWRLTDKTKARYQSKEDLEKAKKEHGITYGEWVNDKVAYYHDYSKDGKTAVDQEHGTHVSGILSGNAPSETKEPYRLEGAMPEAQLLLMRVEIVNGLADYARNYAQAIRDAVNLGAKVINMSFGNAALAYANLPDETKKAFDYAKSKGVSIVTSAGNDSSFGGKTRLPLADHPDYGVVGTPAAADSTLTVASYSPDKQLTETAMVKTDDQQDKEMPVLSTNRFEPNKAYDYAYANRGMKEDDFKDVKGKIALIERGDIDFKDKVANAKKAGAVGVLIYDNQDKGFPIELPNVDQMPAAFISRKDGLLLKDNPQKTITFNATPKVLPTASGTKLSRFSSWGLTADGNIKPDIAAPGQDILSSVANNKYAKLSGTAMSAPLVAGIMGLLQKQYETQYPDMTPSERLDLAKKVLMSSATALYDEDEKAYFSPRQQGAGAVDAKKASAATMYVTDKDNTSSKVHLNNVSDKFEVTVTVHNKSDKPQELYYQATVQTDKVDGKHFALAPKVLYEASWQKITIPANSSKQVTVPIDASRFSKDLLAQMKNGYFLEGFVRFKQDPTKEELMSIPYIGFRGDFGNLSAVEKPIYDSKDGSSYYHEANSDAKDQLDGDGLQFYALKNNFTALTTESNPWTIIKAVKEGVENIEDIESSEITETIFAGTFAKQDDDSHYYIHRHANGEPYAAISPNGDGNRDYVQFQGTFLRNAKNLVAEVLDKEGNVVWTSEVTEQVVKNYNNDLASTLGSTRFEKTRWDGKDKDGKVVANGTYTYRVRYTPISSGAKEQHTDFDVIVDNTTPEVATSATFSTEDRRLTLASKPKTSQPVYRERIAYTYMDEDLPTTEYISPNEDGTFTLPEEAETMEGATVPLKMSDFTYVVEDMAGNITYTPVTKLLEGHS
Broadly, the Kd is the concentration at which binding is half-saturated. Usually koff stands for the first-order rate constant of dissociation. One may read the kon as a measure of how fast the partners come together. B1: the Kd in experiment [2] turned out to be 217 nM; in experiment [3], 162 nM; in experiment [4], 32.5 nM; in experiment [5], 26 nM; in experiment [6], 240 nM; in experiment [7], 25.6 nM. Also, the Kd in [8] came to 234 nM; in [9], 191 nM. For the same molecule, the koff was found to be 0.0176 s⁻¹ in experiment [2]; 0.0178 s⁻¹ in [3]; 0.00583 s⁻¹ in [4]; 0.005 s⁻¹ in experiment [5]; 0.0085 s⁻¹ in experiment [6]; 0.00405 s⁻¹ in [7]. In addition, the results for the koff in experiment [8] and in [9] were 0.0205 s⁻¹ and 0.0118 s⁻¹, respectively. Moreover, the kon in experiment [2] was found to be 81200 M⁻¹ s⁻¹; in experiment [3] it was 111000 M⁻¹ s⁻¹; in experiment [4], 180000 M⁻¹ s⁻¹; in experiment [5] it was 195000 M⁻¹ s⁻¹; in [6], 35200 M⁻¹ s⁻¹; in experiment [7] it was 158000 M⁻¹ s⁻¹. Further, the kon in experiment [8] stood at 88000 M⁻¹ s⁻¹; in experiment [9], 61700 M⁻¹ s⁻¹.

B2: recombinant human C5a, N-ter hexa-histidine tagged (rhC5a) (natural protein, UniProt P01031 678-751, looked up)
chain: TLQKKIEEIAAKYKHSVVKKCCYDGACVNNDETCEQRAARISLGPRCIKAFTECCVVASQLRANISHKDMQLGR
modifications: β-mercaptoethanol added to C27 in the refolding process
notes: numbers count on: the mature C5a (1-74); His-tagged form immobilised on the NTA chip in SPR; also called full length rhC5a; not shown: His6, N-terminal, kept
As for B2, the equilibrium dissociation constant (Kd) in [10] worked out at 140 nM; in experiment [11], 63.5 nM; in experiment [12] it was 34 nM; in experiment [13], 466 nM; in experiment [14], 30.8 nM; in [15], 256 nM. For the same molecule, the koff in [10] is 0.0054 s⁻¹; in [11], 0.00431 s⁻¹; in [12] it was 0.0044 s⁻¹; in [13], 0.0091 s⁻¹; in [15], 0.00651 s⁻¹. The kon was 39200 M⁻¹ s⁻¹ in experiment [10]; 68500 M⁻¹ s⁻¹ in experiment [11]; 131000 M⁻¹ s⁻¹ in experiment [12]; 19500 M⁻¹ s⁻¹ in experiment [13]; 25600 M⁻¹ s⁻¹ in experiment [15]. For the same molecule, in experiment [14], the dH was -9.4 kcal/mol.

B3: His-tagless form of rhC5a (rhC5a-HT) (natural protein, human, UniProt P01031 678-751, looked up)
chain: TLQKKIEEIAAKYKHSVVKKCCYDGACVNNDETCEQRAARISLGPRCIKAFTECCVVASQLRANISHKDMQLGR
modifications: β-mercaptoethanol added to C27 in the refolding process
notes: numbers count on: the mature C5a (1-74); also called rhC5a-HT(sol); tag-less form rhC5a; source: recombinant rhC5a (pProExHTb) treated with TEV protease (Sigma Merck) to remove the His tag; not shown: His6, N-terminal, cleaved
In the case of B3, the Kd in [16] stood at 11.1 nM.
